To fix the notation:
B1: OR4K15 (parent)
chain: GUUAACGGUCAUAGGCCAUGGAAACUAGGAGCACCAUUUCGCUGCCAGUGAAGAAAUGAACAAAGAAAAUCUGGGCCAGGCAGGCAUCAAAAGAAAUAGUCUUGCGCUCAACCAGAAAGUCUGUAAUCAUUUUAAGGGUA

Variants of B1 are the subject of this data set. Kind of data set: self-cleavage, relative activity (ratio to wild type); higher = more cleavage; in vitro, sequencing; the parent is a self-cleaving ribozyme.
On to U49C C77U, for which the self-cleavage stood at 2.23.

On to A51U U108C, for which the self-cleavage stood at 0.02.

Regarding A52G A89C, the self-cleavage is 2.11.

With A51U A64U, the self-cleavage stood at 1.15.

Take A51U A90G: the self-cleavage came to 0.91.

For the variant A51G A94G, the self-cleavage amounted to 1.2.

Regarding A51G U131A, the self-cleavage was 0.59.

In the case of A52C A78C, the self-cleavage was determined as 0.21.

As to G48U U103C, the self-cleavage turned out to be 0.49.

A51G U103A: the self-cleavage amounted to 0.32.

As for A51G U103G, the self-cleavage was determined as 0.05.

Turning to U49C A89U, the self-cleavage is 2.12.

Regarding G50U A82U, the self-cleavage was found to be 0.23.

Turning to A51G A140G, the self-cleavage amounted to 1.62.

With A51G A140U, the self-cleavage worked out at 1.35.

As to A51U U103C, the self-cleavage was found to be 1.35.

Take G50U U100G: the self-cleavage was found to be 1.34.

A51G A91C: the self-cleavage turned out to be 1.97.

Consider A51G A91G, for which the self-cleavage came out at 0.5.

As for A51G U132C, the self-cleavage was found to be 0.81.

Consider A51G U132A, for which the self-cleavage is 1.68.

As to U49C A114U, the self-cleavage was 0.12.

As to A51U U87C, the self-cleavage was 0.54.

Regarding A51G A69G, the self-cleavage worked out at 1.24.

Regarding A51G A69U, the self-cleavage was determined as 1.41.

Turning to G50U A52G, the self-cleavage was 0.42.

Take U49G A67C: the self-cleavage was determined as 1.97.

A51G A95U: the self-cleavage was found to be 0.89.

With U49A A91G, the self-cleavage is 1.

Turning to U49C U120G, the self-cleavage came to 1.33.

Consider A52C A126G, for which the self-cleavage came to 0.42.

U49C U133A: the self-cleavage was determined as 1.29.

In the case of U49C U133C, the self-cleavage was 1.76.

As to A52C A114G, the self-cleavage came out at 0.25.

Consider A51G A126C, for which the self-cleavage was determined as 0.91.

In the case of G48U A91G, the self-cleavage is 1.

Consider A51G U70A, for which the self-cleavage came to 1.23.

As to A51G U130C, the self-cleavage came out at 0.54.

As for A51G A54G, the self-cleavage stood at 0.81.

On to U49A C121A, for which the self-cleavage amounted to 0.95.

Turning to U49A A82U, the self-cleavage came out at 0.18.

Consider A51G G53U, for which the self-cleavage turned out to be 1.66.

U49G U72A: the self-cleavage was 0.32.

Take U49C A134G: the self-cleavage was determined as 1.38.

For U49C G83U, the self-cleavage is 0.71.

In the case of G50U U120C, the self-cleavage is 1.29.

On to U49C A68G, for which the self-cleavage came out at 1.55.

For A51U U70C, the self-cleavage was found to be 0.46.

Regarding U49C A92U, the self-cleavage amounted to 1.42.

With U49C A92G, the self-cleavage came out at 1.47.

Turning to A51C A110U, the self-cleavage worked out at 0.82.

Regarding A52G A68G, the self-cleavage worked out at 1.5.

Consider A52G A68U, for which the self-cleavage stood at 1.66.

As for G50U U132C, the self-cleavage worked out at 1.23.

Consider A51U A78C, for which the self-cleavage was 0.2.

Take A51U A78G: the self-cleavage came to 0.26.

For the variant G50A A64G, the self-cleavage was 1.22.

Turning to A51G G136U, the self-cleavage was determined as 2.08.

For A51G U133C, the self-cleavage was 1.46.

Consider U49C A94U, for which the self-cleavage amounted to 1.36.

Take U49A U70A: the self-cleavage came out at 0.66.

Take G48U A114U: the self-cleavage was 0.09.

For G50A A66U, the self-cleavage worked out at 0.67.

Take A51G U122C: the self-cleavage was 0.6.

For the variant A52C A82G, the self-cleavage is 0.55.

A51C A82G: the self-cleavage was 0.67.

On to U49C A54U, for which the self-cleavage stood at 0.94.

For the variant U49C A54G, the self-cleavage came out at 1.19.

In the case of U49A U132C, the self-cleavage is 1.09.

With G48U A94G, the self-cleavage was 0.54.

A51G U72A: the self-cleavage was found to be 0.13.

As for A52C A95G, the self-cleavage turned out to be 1.94.

With A51U A126G, the self-cleavage was found to be 1.46.

With A51U G84A, the self-cleavage worked out at 0.65.

Regarding A52G A55G, the self-cleavage was 0.97.

As for U49A A69G, the self-cleavage was 1.49.

Turning to U49C A86C, the self-cleavage came out at 0.78.

Turning to A52G A78U, the self-cleavage turned out to be 0.47.

Turning to A51G C71A, the self-cleavage was determined as 0.89.

With A52G A91U, the self-cleavage is 2.17.

As to U49C U131C, the self-cleavage was 1.11.

With A51C A92U, the self-cleavage was 0.57.

As to G48C U131C, the self-cleavage worked out at 0.69.

With A51G A60U, the self-cleavage is 1.68.

In the case of G50U C121A, the self-cleavage turned out to be 2.92.

For U49G U87C, the self-cleavage turned out to be 1.48.

Turning to A52G A96U, the self-cleavage stood at 1.86.

Turning to U49C A66U, the self-cleavage came out at 1.39.

For the variant U49C A62U, the self-cleavage was 0.68.

A51G U124A: the self-cleavage was 1.04.

With U49C G123U, the self-cleavage was 0.88.

Take A51U G104A: the self-cleavage came to 0.01.

For A52G A95C, the self-cleavage was determined as 0.6.

As to A51G A135G, the self-cleavage stood at 1.7.

On to U49A U130C, for which the self-cleavage was found to be 1.53.

With U49A A92G, the self-cleavage was 1.28.

For the variant A52C U103A, the self-cleavage came out at 0.98.

Take U49C A135G: the self-cleavage turned out to be 1.97.

Take U49C A135C: the self-cleavage is 0.89.

For the variant A51U A55G, the self-cleavage was 0.55.

Turning to U49A A134G, the self-cleavage came out at 0.74.

As to A51U A118G, the self-cleavage was determined as 0.6.

On to A51G A129U, for which the self-cleavage came to 0.76.

As for A52C A94G, the self-cleavage worked out at 2.5.

Regarding U49A G138U, the self-cleavage was 1.69.

Regarding A51G A114U, the self-cleavage turned out to be 0.08.

As to U49C A78C, the self-cleavage is 0.43.

In the case of U49C A78U, the self-cleavage is 0.37.

In the case of U49C A78G, the self-cleavage was 0.2.

For the variant U49C A129U, the self-cleavage amounted to 0.92.

Turning to A51U U97C, the self-cleavage is 1.37.

On to A51U A82C, for which the self-cleavage was 0.24.

Regarding U49A U103G, the self-cleavage stood at 0.01.

Turning to U49A U103C, the self-cleavage was found to be 0.93.

As to A52G A63G, the self-cleavage was determined as 1.33.

In the case of U49G G75A, the self-cleavage is 0.09.

With G50A A92U, the self-cleavage amounted to 2.15.

As to A52G A134G, the self-cleavage came to 1.25.

Take A51U G106A: the self-cleavage came to 0.03.

On to A52G A67G, for which the self-cleavage was 1.13.

Regarding U49C U127A, the self-cleavage is 2.43.

Consider U49C U127G, for which the self-cleavage came to 1.49.

Regarding U49C U127C, the self-cleavage worked out at 0.94.

On to G50U A96G, for which the self-cleavage stood at 2.5.

Turning to U49A U124A, the self-cleavage stood at 0.56.

Turning to A52G A98U, the self-cleavage came out at 2.16.

In the case of G50A A95U, the self-cleavage stood at 1.28.

A52G A69G: the self-cleavage came to 0.65.

Regarding G50U A62C, the self-cleavage is 2.27.

With G50U U127C, the self-cleavage was determined as 1.29.

Take U49C U139C: the self-cleavage came to 1.71.

Turning to A52G A62U, the self-cleavage was 1.2.

With A52G A62G, the self-cleavage is 1.19.

Consider U49A A114U, for which the self-cleavage turned out to be 0.04.

As to U49G A95G, the self-cleavage worked out at 1.28.

For A52C A116G, the self-cleavage was determined as 0.64.

A52G A90U: the self-cleavage was 1.81.

Consider A52G A90G, for which the self-cleavage came out at 0.99.

For U49C U103C, the self-cleavage turned out to be 1.01.

For U49C G99U, the self-cleavage came to 0.28.

Take A52G A66G: the self-cleavage came out at 1.75.

On to A52G A66U, for which the self-cleavage is 1.54.

With U49C A117U, the self-cleavage came to 1.08.

As to U49C A117G, the self-cleavage stood at 1.68.

As for U49C G138C, the self-cleavage worked out at 1.54.

On to U49A U120C, for which the self-cleavage amounted to 0.84.

Regarding U49A A118G, the self-cleavage was 1.31.

For the variant U49A A90U, the self-cleavage came out at 1.26.

A51U C128A: the self-cleavage is 0.45.

Regarding G48U A110G, the self-cleavage was 0.2.

With U49C G73A, the self-cleavage was determined as 0.28.

As to G50A U100C, the self-cleavage was 2.01.

Consider G50A U100G, for which the self-cleavage was determined as 0.96.

Turning to A51U U57C, the self-cleavage was 1.58.

As for A52C, the self-cleavage is 0.57.

As to A52G, the self-cleavage is 1.11.

Consider U49A U127G, for which the self-cleavage came to 1.97.

For the variant U49A U127C, the self-cleavage is 0.38.

A51U G58A: the self-cleavage came to 1.56.

Consider A52G A60U, for which the self-cleavage was 0.9.

Take A52G A60G: the self-cleavage is 1.32.

Take U49A A54G: the self-cleavage stood at 1.3.

In the case of U49A A54U, the self-cleavage amounted to 0.89.

In the case of U49C U132G, the self-cleavage is 0.91.

Turning to U49C U132C, the self-cleavage came out at 1.45.

For the variant U49A A98G, the self-cleavage is 0.44.

In the case of U49A A98U, the self-cleavage worked out at 0.26.

Source of the values: the RNAGym collection of RNA variant scans (doi:10.7554/elife.90254).
